# According to patent US20060198852A1:
# pKd: −log10 of the molar value. Like-named read-outs stand apart in the source and are kept apart here.
# How the values were obtained:
# [1] = target: bovine type I collagen (bovine) (UniProt P02453)
# [2] = target: bovine type I collagen (bovine) (UniProt P02453); assay: SPR, BIAcore 3000, collagen immobilized on CM5 chip
# [3] = target: bovine type I collagen (bovine) (UniProt P02453); assay: SPR, from the kinetic rates ka and kd; SPR, from ka and kd
# [4] = target: bovine type I collagen (bovine) (UniProt P02453); assay: SPR, equilibrium responses, one-site-binding nonlinear regression
# [5] = target: bovine type I collagen (bovine) (UniProt P02453); assay: SPR, Scatchard analysis of equilibrium responses; SPR, Scatchard analysis
# [6] = target: bovine type I collagen (bovine) (UniProt P02453); remark: listed apart in the source
# UniProt P02453, sequence (P02453 162-1217 limits assumed, chain 1 of 2): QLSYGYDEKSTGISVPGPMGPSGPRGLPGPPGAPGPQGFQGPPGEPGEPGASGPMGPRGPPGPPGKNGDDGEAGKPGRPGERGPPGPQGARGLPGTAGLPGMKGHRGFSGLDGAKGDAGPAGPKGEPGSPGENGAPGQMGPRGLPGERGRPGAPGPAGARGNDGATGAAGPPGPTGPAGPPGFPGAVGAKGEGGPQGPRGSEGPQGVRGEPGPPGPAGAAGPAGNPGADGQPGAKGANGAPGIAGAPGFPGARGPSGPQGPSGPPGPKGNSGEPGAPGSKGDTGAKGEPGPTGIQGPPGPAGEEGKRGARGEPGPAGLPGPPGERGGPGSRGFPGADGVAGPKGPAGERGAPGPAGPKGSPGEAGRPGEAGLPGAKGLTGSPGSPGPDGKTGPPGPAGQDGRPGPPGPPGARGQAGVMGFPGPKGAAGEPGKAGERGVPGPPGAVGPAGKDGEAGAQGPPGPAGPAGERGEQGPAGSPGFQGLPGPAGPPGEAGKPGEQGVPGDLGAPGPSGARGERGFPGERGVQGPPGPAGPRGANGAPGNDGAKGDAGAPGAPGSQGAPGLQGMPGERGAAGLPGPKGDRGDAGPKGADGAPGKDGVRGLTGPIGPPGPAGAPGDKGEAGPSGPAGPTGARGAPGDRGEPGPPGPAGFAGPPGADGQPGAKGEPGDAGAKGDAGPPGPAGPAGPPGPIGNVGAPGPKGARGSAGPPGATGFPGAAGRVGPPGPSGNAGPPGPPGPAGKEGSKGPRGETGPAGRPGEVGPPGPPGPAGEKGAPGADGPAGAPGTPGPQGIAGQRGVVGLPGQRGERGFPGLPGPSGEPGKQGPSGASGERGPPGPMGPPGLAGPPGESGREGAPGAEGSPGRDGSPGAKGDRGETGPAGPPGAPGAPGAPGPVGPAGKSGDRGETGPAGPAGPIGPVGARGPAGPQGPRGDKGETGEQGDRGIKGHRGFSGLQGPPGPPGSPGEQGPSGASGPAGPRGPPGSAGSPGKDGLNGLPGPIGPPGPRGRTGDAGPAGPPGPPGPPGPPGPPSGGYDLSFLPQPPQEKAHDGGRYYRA
# UniProt P02453, sequence (P02465 80-1117 limits assumed, chain 2 of 2, further chain): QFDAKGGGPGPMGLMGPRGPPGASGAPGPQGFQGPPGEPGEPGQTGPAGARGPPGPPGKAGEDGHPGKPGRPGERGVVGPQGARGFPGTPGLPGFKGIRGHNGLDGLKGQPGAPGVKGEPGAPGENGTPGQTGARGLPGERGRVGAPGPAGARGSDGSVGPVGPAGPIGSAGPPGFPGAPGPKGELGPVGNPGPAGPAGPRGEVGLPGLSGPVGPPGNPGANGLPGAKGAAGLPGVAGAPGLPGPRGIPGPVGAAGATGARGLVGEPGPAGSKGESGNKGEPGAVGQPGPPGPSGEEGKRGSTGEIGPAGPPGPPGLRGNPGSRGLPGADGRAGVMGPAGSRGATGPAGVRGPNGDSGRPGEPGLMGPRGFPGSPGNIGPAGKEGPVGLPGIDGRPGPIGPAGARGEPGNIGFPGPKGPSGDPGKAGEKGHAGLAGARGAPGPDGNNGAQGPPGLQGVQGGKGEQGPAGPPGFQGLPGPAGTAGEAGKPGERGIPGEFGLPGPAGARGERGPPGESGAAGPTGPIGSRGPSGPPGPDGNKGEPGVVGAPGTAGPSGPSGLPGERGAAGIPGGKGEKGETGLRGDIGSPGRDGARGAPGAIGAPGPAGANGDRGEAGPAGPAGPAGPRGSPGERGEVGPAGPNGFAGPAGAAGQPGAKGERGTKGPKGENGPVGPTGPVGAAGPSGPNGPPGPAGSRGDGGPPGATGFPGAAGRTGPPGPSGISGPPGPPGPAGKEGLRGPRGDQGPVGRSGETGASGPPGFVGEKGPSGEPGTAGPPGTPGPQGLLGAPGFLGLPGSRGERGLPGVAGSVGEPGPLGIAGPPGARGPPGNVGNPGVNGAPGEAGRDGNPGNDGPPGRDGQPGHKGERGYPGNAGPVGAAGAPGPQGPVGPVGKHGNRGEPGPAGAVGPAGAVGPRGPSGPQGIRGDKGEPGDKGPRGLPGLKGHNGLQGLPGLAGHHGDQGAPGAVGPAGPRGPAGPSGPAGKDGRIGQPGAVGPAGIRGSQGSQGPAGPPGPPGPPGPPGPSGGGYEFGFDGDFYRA
Substance,pKd [1],koff [2],kon [2],pKd [3],pKd [4],pKd [5],pKd [6]
"rBA0871A, recombinant His-tag fusion protein of the A region (amino acid residues 42-765) of BA0871",6.72,0.0043 s⁻¹,2800 M⁻¹ s⁻¹,5.80,5.49,5.62,–
"rBA5258A, recombinant His-tag fusion protein of the A region (amino acid residues 32-366) of BA5258",7.52,–,–,–,6.05,–,6.22
